Assay results: patent publication US20260201029A1

Key:
human FcγRIIa (human) = human FcγRIIa (human) (UniProt P12318); assay: SPR, receptor captured by anti-his, antibody injected, steady-state fit
[1] = target: cynomolgus FcγRIIa (cynomolgus); assay: as above
[2] = target: cynomolgus FcγRIIb (cynomolgus); assay: as above
human FcγRIIb/c (human) = human FcγRIIb/c (human) (UniProt P31994); assay: as above
[3] = target: cynomolgus FcγRIII (cynomolgus) (UniProt Q8SPW2); assay: SPR, receptor captured by anti-his, antibody injected, 1:1 fit
Chain of cynomolgus FcγRIII (cynomolgus) (Q8SPW2 17-208 limits assumed): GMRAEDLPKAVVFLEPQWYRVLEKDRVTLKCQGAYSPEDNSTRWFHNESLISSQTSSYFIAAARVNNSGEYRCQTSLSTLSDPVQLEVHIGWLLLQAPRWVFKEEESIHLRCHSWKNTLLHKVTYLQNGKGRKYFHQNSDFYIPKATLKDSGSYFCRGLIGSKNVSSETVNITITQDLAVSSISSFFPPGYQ

[4] = target: human FcγRIIIa 158F allele (human) (UniProt P08637); assay: as above
Chain of human FcγRIIIa 158F allele (human) (P08637 17-208 limits assumed): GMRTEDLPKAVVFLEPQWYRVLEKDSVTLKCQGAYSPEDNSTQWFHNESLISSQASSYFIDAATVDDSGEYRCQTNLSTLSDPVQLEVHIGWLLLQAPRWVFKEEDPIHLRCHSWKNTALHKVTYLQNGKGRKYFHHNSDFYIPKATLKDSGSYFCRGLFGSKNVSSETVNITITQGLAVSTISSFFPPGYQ

[5] = target: cynomolgus FcγRI (cynomolgus); assay: as above
human FcγRI (human) = human FcγRI (human) (UniProt P12314); assay: as above
Chain of human FcγRI (human) (P12314 16-288 limits assumed): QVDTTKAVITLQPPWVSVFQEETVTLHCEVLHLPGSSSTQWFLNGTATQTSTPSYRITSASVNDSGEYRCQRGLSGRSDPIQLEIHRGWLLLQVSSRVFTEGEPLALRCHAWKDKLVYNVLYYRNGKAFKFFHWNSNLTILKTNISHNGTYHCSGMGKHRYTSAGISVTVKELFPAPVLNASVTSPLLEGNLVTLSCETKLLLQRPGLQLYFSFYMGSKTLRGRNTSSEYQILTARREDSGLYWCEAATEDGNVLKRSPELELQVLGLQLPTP

[6] = target: human FcγRIIIa 158V allele (human) (UniProt P08637); assay: as above
Chain of human FcγRIIIa 158V allele (human) (P08637 17-208 F176V limits assumed): as the sequence (P08637 17-208 limits assumed) above, with F160V counted along it

Chain of human FcγRIIb/c (human) (P31994 46-217 limits assumed): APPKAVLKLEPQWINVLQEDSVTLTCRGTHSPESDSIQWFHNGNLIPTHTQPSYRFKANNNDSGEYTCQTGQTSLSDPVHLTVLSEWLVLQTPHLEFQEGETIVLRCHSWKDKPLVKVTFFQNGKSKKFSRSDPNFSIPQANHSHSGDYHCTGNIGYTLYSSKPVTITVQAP
Chain of human FcγRIIa (human) (P12318 36-218 limits assumed): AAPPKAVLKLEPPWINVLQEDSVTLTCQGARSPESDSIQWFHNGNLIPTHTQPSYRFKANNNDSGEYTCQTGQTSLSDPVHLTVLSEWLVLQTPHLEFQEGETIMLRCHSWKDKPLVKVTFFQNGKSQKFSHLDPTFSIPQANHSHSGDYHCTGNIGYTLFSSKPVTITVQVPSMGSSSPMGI

A Fold increase in binding (vs wt IgG1 control) (human FcγRIIa (human)) of 1 fold, a Kd (human FcγRIIa (human)) of 9.33 µM and a Fold increase in binding (vs wt IgG1 control) [1] of 1 fold were found for wt IgG1 control (antibody) in this work. It also gave a Kd [1] of 8.15 µM, a Fold increase in binding (vs wt IgG1 control) [2] of 1 fold and a Kd [2] of 4.45 µM. It also gave a Fold increase in binding (vs wt IgG1 control) (human FcγRIIb/c (human)) of 1 fold, a Kd (human FcγRIIb/c (human)) of 11.2 µM and a Kd [3] of 0.395 µM. For the same substance, the Kd [4] was 3.78 µM, the Fold increase in binding (vs wt IgG1 control) [5] was 1 fold and the Kd [5] was 0.0015 µM. It also gave a Fold increase in binding (vs wt IgG1 control) (human FcγRI (human)) of 1 fold, a Kd (human FcγRI (human)) of 0.0029 µM and a Kd [6] of 0.905 µM.
